Here are results for 8 substances from US7022673B2, “Method for increasing the serum half-life of a biologically active molecule” (Chiron Corporation, priority 1998, dated 2006).

No end group written: not given here.

Series [1] in a line: Serum half-life after intravenous injection into mice. To be noted: for serum half-life: mice, intravenous injection. The format is in vivo. How it is done:
uPA1-48 was produced in yeast, purified and concentrated into PBS. When produced in yeast, uPA1-48 lacks a fucosylation which is present when the protein is expressed in mammalian cells. The purified protein was injected intravenously into mice. Blood samples were collected at various time points, and the amount of uPA1-48 present in each sample was determined.
Pharmaceutical preparations comprising the conjugates of uPA1-48 and PEG were injected intravenously into mice. Blood samples were collected at various time points, and the amount of conjugate present in the blood was determined for each time point.

The target of a further series is uPAR (Homo sapiens, UniProt Q03405). In words: uPAR receptor binding activity (method of Goodson et al.). The following applies: for IC50: uPAR receptor binding.
Chain of uPAR (Q03405 23-335): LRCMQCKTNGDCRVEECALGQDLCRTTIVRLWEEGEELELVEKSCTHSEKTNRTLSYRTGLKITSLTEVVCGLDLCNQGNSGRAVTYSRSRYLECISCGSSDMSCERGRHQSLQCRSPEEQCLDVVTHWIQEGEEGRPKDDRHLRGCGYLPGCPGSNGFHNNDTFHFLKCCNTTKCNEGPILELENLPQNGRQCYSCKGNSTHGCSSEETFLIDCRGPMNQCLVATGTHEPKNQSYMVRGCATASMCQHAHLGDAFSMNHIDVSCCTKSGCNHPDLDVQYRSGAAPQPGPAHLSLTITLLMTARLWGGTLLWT
Series [2] is described as follows: Pharmacokinetics after single IV bolus or SC dose in cynomologous monkeys (active protein measured by receptor binding activity). The format is in vivo. The following applies: for t1/2: functional half-life. The procedure: As above, blood samples were collected at various time points, and the amount of conjugate present in the blood was determined for each time point. The method measures the receptor binding activity instead of just the total protein present; thus the amount of protein measured as a function of time represents the active protein, and the measured half-life represents functional half-life. The data is shown in Table 1, and a graph illustrating plasma disposition of PEG hu1-48 over time is included in FIG. 1.

For series [3], the system named is MDA MB231 cells (human breast carcinoma). In words: Breast carcinoma MDA MB231 subcutaneous tumor growth in NOD/Ltz mice. The following applies: for tumor growth reduced: vs vehicle control at 9 weeks, p=0.05. The format is in vivo. How it is done:
Thirty NOD/Ltz mice were injected subcutaneously with 2×10^6 MDA MB231 cells (human breast carcinoma) on day 0. The mice were divided into three groups of 10 mice each, and the treatment of the three groups of mice began on day 1. Twice every week, group 1 was subcutaneously injected with 30 μg PEG hu1-48 (20 kD PEG), group 2 was subcutaneously injected with 300 μg PEG hu1-48 (20 kD PEG), and group 3 was subcutaneously injected with the vehicle (PBS). Treatment was continued for 9 weeks. The primary tumor volume (mm^3) was measured three times per week for 12 weeks, and the experiment was terminated when mean tumor volume in vehicle control group exceeded 2000 mm^3.

In series [4] the test system is PC-3 mm2 cells (human prostate carcinoma). The series is described as follows: Human prostate carcinoma PC-3 mm2 orthotopic tumor growth in nude mice. The format is in vivo. To be noted: 300 μg SC twice per week for 3 weeks, vs vehicle control. The procedure: The prostates of 18 nude mice were injected with 1×10^5 PC-3 mm2 cells (human prostate carcinoma) on day 0. The mice were divided into two groups of nine mice each, and treatment was initiated on day 3 and continued for 3 weeks. Twice per week, the mice of group 1 received 300 μg PEG hu1-48 (20 kD PEG) by subcutaneous administration, and the mice of group 2 received vehicle only by subcutaneous administration. Three weeks after the implantation of the human prostate carcinoma cells, the prostates of the mice were excised and weighed to determine effects of treatment on the primary tumor growth.

For series [5], the system named is KM12 L4A cells (human colorectal adenocarcinoma). In words: Colon cancer tumor growth and liver metastases, intrasplenic KM12 L4A in nude mice. The format is in vivo. To be noted: 250 μg BID SC five times per week, 4 weeks. The procedure:
Twenty 10 week old Nude male mice were injected intrasplenically with 1×10^6 KM12 L4A cells (human colorectal adenocarcinoma) on day 0. The mice were divided into two groups, and treatment was initiated on day 1 post-implantation and continued for 4 weeks. Group 1, consisting of 10 mice, were subcutaneously injected five times per week with PEG hu1-48 (20 kD PEG) and 250 μg BID while group 2 mice acted as the control and were injected with vehicle only. The animals were sacrificed all 5 weeks, and the spleens of the animals from each group were weighed to determine primary tumor burden (FIG. 4A). The livers were weighed to determine metastatic tumor burden, and were scored by histological examination for incidence of metastases (FIG. 4B). […] For the purposes of comparison, the average splenic weight for mice in this age group is about 240 mg.

In series [6] the test system is KM12 L4A cells (human colorectal carcinoma cancer with high metastatic potential). In words: Liver metastases in post-resection colorectal carcinoma model (KM12 L4A, spleen removed). The format is in vivo, mice. To be noted: 1000 μg SC twice per week, vs vehicle. How it is done:
Thirty male Nu/Nu mice were injected intrasplenically with 0.5×10^6 KM12 L4A cells (human colorectal carcinoma cancer with high metastatic potential), and the spleens of all the mice were removed 3 days after implantation of the KM12 L4A cells. The mice were divided into two treatment groups, and treatment was began 6 days after implantation. The first group of 15 mice received subcutaneous administrations of 1000 μg PEG hu1-48(20 kD PEG) twice per week, and the second group of 15 mice received saline vehicle only and served as the control group. The experiment was terminated 27 days after implantation of the KM12 L4A cells, and the weight of the livers were determined and histologically scored for metastatic foci.

The conditions of series [7]: relative to native protein; cited from earlier work.

“uPA1-48 /PEG3.4 kD conjugate: uPA1-48 N-terminal aldehyde coupled to PEG hydrazide of nominal average molecular weight 3.4 kD ({PEG 3.4 kDa hydrazone}-SNELHQVPSNCDCLNGGTCVSNKYFSNIHWCNCPKKFGGQHCEIDKSK; cysteine pairing not given here; UniProt P00749 21-68, looked up, fragment)” had a serum half-life in series [1] of 0.2 h.

Regarding “uPA1-48: catalytically inactive protein comprising the first 48 amino acids of human uPA (EGF-like domain), produced in yeast (SNELHQVPSNCDCLNGGTCVSNKYFSNIHWCNCPKKFGGQHCEIDKSK; UniProt P00749 21-68, looked up, fragment)”, in series [1], the serum half-life entry is listed as “approximately 10 minutes”. In the series with uPAR, this substance yielded a 50% inhibitory concentration (IC50) of 0.25 nM.

In series [1], “uPA1-48/PEG20 kD conjugate: uPA1-48 N-terminal aldehyde coupled to PEG hydrazide of nominal average molecular weight 20 kD ({PEG 20 kDa hydrazone}-SNELHQVPSNCDCLNGGTCVSNKYFSNIHWCNCPKKFGGQHCEIDKSK; cysteine pairing not given here; UniProt P00749 21-68, looked up, fragment)” returned a serum half-life of 2.17 h. Also, in series [1] (relative to unmodified uPA1-48, mice), the “increase in serum half-life” value turned out to be 13 fold. In series [2] (monkey F67-344F, IV, 10 mg/kg), this substance had a t1/2 of 6.9 h, an exposure (AUC) of 3297918 nM·min, a CL of 0.6 mL/min/kg and a Cmax of 19.143 µM. In series [2] (monkey F67-344F, IV, 10 mg/kg), the F was found to be 100%, the mean residence time MRT stood at 7.4 h, the Tmax is 0 h and the Vss is 0.252 L/kg. Moreover, in series [2] (monkey F67-344F, SC, 10 mg/kg), the t1/2 worked out at 23 h, the AUC is 3803604 nM·min, the Cmax amounted to 2.596 µM and the F came out at 115%. For the same substance, in series [2] (monkey F67-344F, SC, 10 mg/kg), the mean residence time MRT came out at 31 h and the Tmax worked out at 8 h. In series [2] (monkey F7238F, IV, 10 mg/kg), this substance showed a t1/2 of 7.6 h, an exposure (AUC) of 3002085 nM·min, a CL of 0.6 mL/min/kg and a Cmax of 30.564 µM. For the same substance, in series [2] (monkey F7238F, IV, 10 mg/kg), the F stood at 100%, the mean residence time MRT amounted to 6.6 h, the time to peak (Tmax) is 0 h and the Vss worked out at 0.249 L/kg. In series [2] (monkey F7238F, SC, 10 mg/kg), this substance displayed a t1/2 of 26 h, an exposure (AUC) of 3057502 nM·min, a Cmax of 2.155 µM and an F of 101%. Besides, in series [2] (monkey F7238F, SC, 10 mg/kg), the mean residence time (MRT) was 28 h and the Tmax is 4 h. In series [2] (monkey F7281F, IV, 8.8 mg/kg), this substance showed a t1/2 of 6.4 h, an exposure (AUC) of 1987996 nM·min, a CL of 0.8 mL/min/kg and a peak concentration (Cmax) of 19.199 µM. In series [2] (monkey F7281F, IV, 8.8 mg/kg), the F came to 100%, the mean residence time (MRT) came to 5.1 h, the time of peak concentration (Tmax) was 0 h and the Vss amounted to 0.255 L/kg. Also, in series [2] (monkey F7281F, SC, 10 mg/kg), the t1/2 amounted to 14 h, the area under the curve (AUC) was found to be 2337888 nM·min, the peak concentration (Cmax) came out at 1.126 µM and the F stood at 103%. In series [2] (monkey F7281F, SC, 10 mg/kg), the mean residence time MRT was determined as 31 h and the time of peak concentration (Tmax) is 8 h. Besides, the “decrease in biological activity” value with uPAR (relative to uPA1-48, uPAR binding) was “four-fold”. The substance also yielded an IC50 in the series with uPAR of 1 nM. Moreover, the tumor growth reduced in series [3] (30 μg SC twice every week) is 77%. In series [3] (300 μg SC twice every week), this substance returned a tumor growth reduced of 98%. The “effect after treatment was stopped (day 63)” value in series [3] (300 μg group observed additional 3 weeks, tumors evident by day 84) is reported as “cytostatic effect”. In series [4], the “reduction in primary tumor growth (prostate weight)” value was roughly 57%. The “incidence of liver metastases” value in series [5] (6 control mice had metastases, p<0.005) is recorded as “no observed metastases”. The “mice with visible tumors in the spleen” value in series [5] (of 10 mice) was 7 mice. Moreover, the average spleen weight in series [5] (±113, control 641 mg, normal about 240 mg) was 269 mg. Moreover, the “overall liver tumor burden” value in series [6] (day 27) is listed as “trend toward a reduction”. In series [6] (p value <0.05, day 27), the “metastases to the liver” value is “significantly reduced metastases to the liver”.

“uPA1-48/PEG25 kD conjugate: uPA1-48 N-terminal aldehyde coupled to PEG hydrazide of nominal average molecular weight 25 kD ({PEG 25 kDa hydrazone}-SNELHQVPSNCDCLNGGTCVSNKYFSNIHWCNCPKKFGGQHCEIDKSK; cysteine pairing not given here; UniProt P00749 21-68, looked up, fragment)” yielded a serum half-life in series [1] of 4.62 h.

In series [1], “uPA1-48/PEG50 kD dimeric conjugate: a uPA1-48 molecule conjugated at each end of PEG50 kD (SNELHQVPSNCDCLNGGTCVSNKYFSNIHWCNCPKKFGGQHCEIDKSK; cysteine pairing not given here; also: dimer: one uPA1-48 conjugated at each end of PEG 50 kDa, site not given here; UniProt P00749 21-68, looked up, fragment)” gave a serum half-life of 4.8 h.

With “IL-8/PEG20 kD conjugate: literature conjugate of IL-8 with PEG20 kD (Gaertner and Offord 1996)”, the “change in half-life on conjugation to PEG20 kD” value in series [7] is recorded as “no change”.

In series [1], “uPA1-48/PEG5 kD conjugate: uPA1-48 N-terminal aldehyde coupled to PEG hydrazide of nominal average molecular weight 5 kD ({PEG 5 kDa hydrazone}-SNELHQVPSNCDCLNGGTCVSNKYFSNIHWCNCPKKFGGQHCEIDKSK; cysteine pairing not given here; UniProt P00749 21-68, looked up, fragment)” displayed a serum half-life of 0.733 h.

As for “PEG20 kD to IL-1ra: literature conjugate of PEG20 kD with IL-1ra (Gaertner and Offord 1996)”, in series [7], the “change in half-life on conjugation to PEG20 kD” value is on record as “almost seven-fold increase”.
